The values that follow come from the DeepSol protein solubility set.

The nature of this data set: soluble on expression in E. coli; label from the status in PepcDB or PDB records.
For the sequence “MAEPWGNELASAAARGDLEQLTSLLQNNVNVNAQNGFGRTALQVMKLGNPEIARRLLLRGANPDLKDRTGNAVIHDAARAGFLDTLQTLLEFQADVNIEDNEGNLPLHLAAKEGHLRVVEFLVKHTASNVGHRNHKGDTACDLARLYGRNEVVSLMQANGAGGATNLQ”, the “soluble on expression in E. coli” value is given as “soluble”.
Turning to “MAESCVKPQLPRPRIPNIRVFQPTTRIPTFTYEQFNESVEILPSRPECLYRRNDPTNRSYRMKKRPPAQIYHCVQCNKHIKYPSKITEHIRKHTGEKPNVCSICNISFSQAHTLKTHMQQHAHEKPYKCSFCTAEFLNVYEKNEHEEQHMHHPNHGETMEENNATTSQFIQVAEPTIQAEPCQIYECSEMCGFQSYEEAEVVEHMTVTHYQQTKKSKEIPKLKNPGFSINFNYFQVQNGLILQDFNGEPEPIYEFYEEQYVQQVPTEIEETPTIKQQSIPYENLHFEHVEAAPGPSEPHLQVVAEGEILYDGEEIVDISNGKSLKEEIQNGDANIYGMIQDLEEEVEDIGNEDEERERVRIMVNPNPPKRGTKSLRDHHEATAATMEMIVDASILELAEPSRHLKQGYPPISKRKNTGKRAENLDWIIDAVAKGVDVSEASPHHRKKPTLHKCEYCGRVDKYPSKIRAHMRTHTGEKPFKCEICGMAFSQKTPMRLHLRRHFDQKPYECDVDGCKERFVSGAILKMHVEKKHLNKKKYVCSRGCGRVFSSAYNQKHHEKKCEQTYVTWVEGEQQSVESGEEDEESNGEYPDDDEEYMDDMIDASTSQPINRVVEHFSEEPVFLHQ”, the “soluble on expression in E. coli” value was “not soluble”.
With “MAETDPKSVQDLTAVVQTLLQQMQDKFQTMSDQIIGRIDEMSTRIDDLEKNIADLMTQAGVEEIEGENKVKEGDAS” the entry was “soluble”; with “MAETQFTRFPFQPFIIEAIKTLRFYKPTEIQERIIPGALRGESMVGQSQTGTGKTHAYLLPIMEKIKPERAEVQAVITAPTRELATQIYHETLKITKFCPKDRMIVARCLIGGTDKQKALEKLNVQPHIVIGTPGRINDFIREQALDVHTAHILVVDEADLMLDMGFITDVDQIAARMPKDLQMLVFSATIPEKLKPFLKKYMENPTFVHVLEHHHHHH”, “soluble”; with “MAEVAPNSTLYINNLNEKIKIDELRKSLVAVFKQFGEIVSVMCFRTLKMRGQAHVIFKELPAASAAREALNGFPFYEKPMRIQFAREDSDVVAQEKGTYIKREPKYLSEKILKKPKSRKKENGGDGPAPPNKILFCTNLPDSATAEMLEIMFNQFAGLKDIRMVPNRPGIAFVEFDTDSLAIPARTTLNNFKISAEHTMRVDYAKK”, “soluble”.
With “MAEVTILGLGNLLWADEGFGVRAAEKLFEQYADNEKVDVVDGGTQGLALLPWLQQTEKLLIMDAIDFGMAPGSLAMFRDEQVPAYLTAKKLSLHQTSFSEVLALLQLTGGQLSEIVLIGVQPECLDDYGGSLTPQVKAQLMPAVYLAQEVLAQWGITASSAALPTERLNHYSLCMERYEDERPDAQSACRVGDIRVLQREKS” the entry was “not soluble”; with “MAFELPKLPYAFDALEPHFDKETMEIHHDRHHNTYVTKLNAAVEGTDLESKSIEEIVANLDSVPANIQTAVRNNGGGHLNHSLFWELLSPNSEEKGTVVEKIKEQWGSLEEFKKEFADKAAARFGSGWAWLVVNNGQLEIVTTPNQDNPLTEGKTPILGLDVWEHAYYLKYQNKRPDYIGAFWNVVNWEKVDELYNATK”, “not soluble”; with “MAFFESDIVQDEAKRLFGDYQQLMQLGSEYGKFDREGKKKFIETMEELMGRYRVFMKRFELSEDFQAKLTVEQLRTQLSQFGITPEQMFEQMNATLERMKAQIELPPSS”, “not soluble”.
Under “MAFIESWAKRTWLVPPQMQLYVDYKIKVTEILTNYTSIEEIHSYSIDESFLDITESLNFFYPDIRNRYEQMNLITLDLQREILDKLGLYVTVGMGDNPLLAKLAMDNYAKHNQNMRALIRYLEHHHHHH” stands “not soluble”; under “MAFLPLYIPKGRRLKIVIVGGGYAGIAALVTLHRYSPDAEITLIDPGIDHLKITHLHETFRYPLSDFLVPYAFLEQRFGCRHIRSALAVDESMLCQWQRDRYLQVDDQQVPFDYLLVASGARSFTRNETDERTAADAENIVRLENFFTVSGADLLDRFLATQDRAGNTAPSCISVVGGGATGIQFLFELAGYLRRRRINHGLQLVDDNERVLQRYPGGFARYVEMRMLELDIEFYPGVCFLEQRADTVLLEDKTSGRHFELPSVLSLVFTGNRQDNLIKTNAFGQVMVDGKPLGNIFAAGDCSVYPSLGSNTMTAQSAVRKGKLAARNILRHSGVLKVLEPYLHHDLGYVVSLGPEDAVGWLAVENNVVTGVPALAIKEIVEAQYDLLLSGVDTYLVLEHHHHHH”, “not soluble”.
With “MAFQQPNLQQIFSSVDKDRSGQISSDELQTALSNGTWNPFNPETCRLMIGMFDSNGDGAINFQEFQALWRYINDWTNCFRGFDTDGSGNIDKSELTNALTQFGYRLSPQFYNILMHKFDRSHSNRINFDDFIQLCVVLQTLTAAFRLEIRAKIDLEI”, the “soluble on expression in E. coli” value was “not soluble”.
With “MAGFEIQRVESKFFDLDDIIAKSDSTSCTFEIGDLNPDFFQEMLGVSKPTQNADGYGVDAPYWLLESVRSSFSIQLPKAYSVNMQNVLNADSKKLNLSGLQQHFYGNGMQLCRLMKGENPDGALSLARCLVSTLTQRLGEIVSTATHLQSKGEKFDSLETKVFLEGKRCKEDIDTWLRQDNKCSSKKRKRLSL” the entry was “not soluble”; with “MAGGARDDLAEKMAGEVALSDDPGATLRKWRTDFDVAQTELADELDVSPSVVSDYESGRRDNPGIGVVRRLVVALLDIDENRGGDHIRQHARVLSAGFDSDVVHDLREYSANVGVERVYDAIDAEELFRGSQDTVAGHTVINSIAAITRLSSDEFYQLYGQSTNRALVFTNVTRGESPLVALRVVSPTPNAVILHGLEDEAVWEHAQDLARIDDFSLAITDIELEDLLGGLRELP”, “not soluble”.
On to “MAGPSWRHIRAEGLDCSYTVLFGKAEADEIFQELEKEVEYFTGALARVQVFGKWHSVPRKQATYGDAGLTYTFSGLTLSPKPWIPVLERIRDHVSGVTGQTFNFVLINRYKDGCDHIGEHRDDERELAPGSPIASVSFGACRDFVFRHKDSRGKSPSRRVAVVRLPLAHGSLLMMNHPTNTHWYHSLPVRKKVLAPRVNLTFRKILLTKKLEHHHHHH”, for which the “soluble on expression in E. coli” value was “soluble”.
As to “MAGRLREMRCELSFLKNADGSACFSQGATCIWASCSGPGDVHASKASDEAMTLDISYRANCGDNKFNVLNNIIHSTLSNAINLELFPHTTISVTVHGIQDDGSMGAVAINGACFALLDNGMPFETVFCGVLIVRVKDELIIDPTAKQEAASTGRVLFSVCKGSDGHPEVCAMDAIGHWDFIQLEAAWSLAQPSASAIFDFYKTVMKRKLSVDEQ”, the “soluble on expression in E. coli” value is on record as “not soluble”.
For “MAGWNLEPEYTSLARDFGSLDAVFALQGQQLTRDPLSDVIRVERAGVYYFVKRYVGAGKGLRRYMGKPRVKSEWQNLKRFAKWGIPTAEVVAWGLERNGAAYDRGALITRGLPNTEDLSALAQRKDPRLADRQWVDGISRQLAAYTRIMHDNHFTHNDLKWRNLLVDNEDRLFFIDCPNGAFWWSFMLRYRITKDLACLDKVAKYHLSATQRLRFYLQYRQRARLNAADKKRIRHIVSFFEGRE”, the “soluble on expression in E. coli” value is recorded as “not soluble”.
Under “MAHGFHASVMAITLDKITLTETTLTNPKAVEYQWVRTLYVQGYQPEAINHYIQTCFGGDETFADLFRRVAMHEESLYLLLQYLSCAPSSREF” stands “soluble”; under “MAHHHHHHASVGRFVQTADPAVTALESPPLPTETRLWRQSPDCQSESDSNRVSGSVLDSVKSNGGPKHASTARLHASQDLPTSVTRFLCLSSSSNSAAAKDLRRQLLVVRDCCVALGNKVKGSELLLLGGSQLSRKVEAMADFNSCLGVIFAASLTFTGETEGVAKDTLCSVVEMLKSAQESGDEKVFRAAVVKIVNRILLCTPLRPPARNAAKETARKSAGKQEQHAEQEPKLEDECLDFLTVEDGVPVLLECVWKRWLRYFEDGYVRYVKKLMAEERQALEAAAAAAAADDYNGEEAQYVDGVSATTTQTISTVPLFTTCQDYWKSPASAYAQFCYILLAIFFVRTKDFSLNYLARVTKLVQYFTYQLEFEDGEPIAVRTDTDAEEDSAQSEDEDDDRTPPQQEGPRKEKQVHSLPMPEYDKAVTQRRFRMSRRSSSQGLVPTVVSFKKAEKPRRHCHKCFFTDALPGDLRPSVEAVRQEEAEAAARDSEEHSHLPVVRRSANLDLSEHSISPQREREQLDACDASMESVQGV”, “soluble”.
With “MAHHHHHHGMTRTRSGSLAAGGLNWASLPLKLFAGGNAKFWHPADIDFTRDRADWEKLSDDERDYATRLCTQFIAGEEAVTEDIQPFMSAMRAEGRLADEMYLTQFAFEEAKHTQVFRMWLDAVGISEDLHRYLDDLPAYRQIFYAELPECLNALSADPSPAAQVRASVTYNHIVEGMLALTGYYAWHKICVERAILPGMQELVRRIGDDERRHMAWGTFTCRRHVAADDANWTVFETRMNELIPLALRLIEEGFALYGDQPPFDLSKDDFLQYSTDKGMRRFGTISNARGRPVAEIDVDYSPAQLEDTFADEDRRTLAAASA” the entry was “soluble”; with “MAHHHHHHMAAAPSATAPKHNYTLGTNASQLELYKYLKTVPPIPELRQAVTIKKYEEASVDDTLYPLIDEHQIIMVVGAFFGDEGKGKTVDAVARHPACTCVARVNSGENAGHTVFDDIGRKYVFNLAPSSLLTPNTRNYVSSECVMDPISFMEREIGQFIKSNMPYKDKLFVGNVFVVTPYHKLLDLLGSAPNSSTLKGMSPIHASKVTKRGIRLDHIFNDEGVLRARLAKDMDTYYGLLKVKGLTDKDVVRRCQEENADGVERVPGYVVDFARAENKIDYLVKLYTERVKNNKDFPRRCDVTHELRAALARGEKLLLEGPQSYWLSNAREKFWESTTSADTTAGGLLASAQFNFQRYKVLVINVHKAPGSSRVGIGANPSSFVPQDYYSAQDIKTLEALPKGGCVDFDKIQNFFYTKAFNTESKTFNGIYEPLEYEDATGKYNIGVAMSIASARHHGECGAVTKKPRVCGFFDCVLHFEVNAVQGPYLSISAVDRGDDYDRIGITIAYVYYDVGNKMVDANGRVYKNGDIIKAGDPVPCEMALYHCYPIVKVINGWKGAPIAASKRRPNEPLPKGVCEFIANVEFFTGAKVISIGNGPRGSDIIYLKQ”, “soluble”.
For the sequence “MAHHHHHHMADDEPEYREAANPIEAFIDCARYDEPGDAEALRTLLSNSPSFLNSQDEQGRTALHVAAANGRLKVLETLLGYNPTPDVPNNEGNTALHFAALNNQTAAARLLLRHGWRASARNAFNKTPIQLIYGKQFEDMELLLLGHDDELEQFSGQASQAARGPAVVNEATVQQQPAVEAERATNAEQPRVNPVQKEQESDPTTLLGSVGVDEIE”, the “soluble on expression in E. coli” value is “soluble”.
Regarding “MAHHHHHHMADGKAENELMEIEEIAVSDGGAARFAPVEVKSGEEKYNIVWEETGKLLRFDEGENAWKERGQGMAKILQKKEDSGVYMFVFRREGVGKLAAQHYLLRGMTIKVHPQSEKALLWTAFKDYSDDEEGFPERFVLRFASKELADSGLKAFNDALSKTTT”, the “soluble on expression in E. coli” value is “soluble”.
